Assays:
Assay in all cases: cell-based or functional assay
[1] = biological target: CDK7/cyclinH/MAT1(h) (human) (UniProt P50613)
CK2(h) (human) = CK2(h) (human) (UniProt P68400)
DAPK1(h) (human) = DAPK1(h) (human) (UniProt P53355)
EphA7(h) (human) = EphA7(h) (human) (UniProt Q15375)
EphB1(h) (human) = EphB1(h) (human) (UniProt P54762)
FGFR2(h) (human) = FGFR2(h) (human) (UniProt P21802)
GCK(h) (human) = biological target: T1, GCK(h) (human) (UniProt Q12851)
T1 sequence (looked up): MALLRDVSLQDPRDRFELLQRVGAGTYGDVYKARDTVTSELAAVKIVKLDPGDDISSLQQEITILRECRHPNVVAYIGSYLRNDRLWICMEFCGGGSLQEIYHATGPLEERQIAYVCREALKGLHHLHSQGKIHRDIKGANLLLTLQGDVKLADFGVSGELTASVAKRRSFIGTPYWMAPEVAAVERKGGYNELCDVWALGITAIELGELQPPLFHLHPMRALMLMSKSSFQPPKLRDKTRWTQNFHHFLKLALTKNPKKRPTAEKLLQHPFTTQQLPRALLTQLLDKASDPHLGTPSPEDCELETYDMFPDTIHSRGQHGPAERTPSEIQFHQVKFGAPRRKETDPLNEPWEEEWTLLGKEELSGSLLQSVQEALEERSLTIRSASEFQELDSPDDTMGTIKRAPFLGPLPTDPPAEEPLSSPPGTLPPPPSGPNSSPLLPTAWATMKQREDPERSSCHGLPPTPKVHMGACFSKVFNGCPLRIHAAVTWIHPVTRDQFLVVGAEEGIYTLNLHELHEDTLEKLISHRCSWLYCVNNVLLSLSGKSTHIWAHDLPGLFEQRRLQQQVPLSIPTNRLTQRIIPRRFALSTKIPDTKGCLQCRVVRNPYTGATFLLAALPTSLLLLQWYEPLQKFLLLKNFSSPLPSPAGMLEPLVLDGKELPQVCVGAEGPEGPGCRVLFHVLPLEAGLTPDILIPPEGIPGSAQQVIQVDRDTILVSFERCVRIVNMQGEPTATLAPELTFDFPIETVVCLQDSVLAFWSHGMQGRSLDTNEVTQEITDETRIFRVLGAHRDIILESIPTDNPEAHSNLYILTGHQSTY

JNK3(h) (human) = JNK3(h) (human) (UniProt P53779)
LKB1(h) (human) = biological target: T2, LKB1(h) (human) (UniProt Q15831)
T2 sequence (looked up): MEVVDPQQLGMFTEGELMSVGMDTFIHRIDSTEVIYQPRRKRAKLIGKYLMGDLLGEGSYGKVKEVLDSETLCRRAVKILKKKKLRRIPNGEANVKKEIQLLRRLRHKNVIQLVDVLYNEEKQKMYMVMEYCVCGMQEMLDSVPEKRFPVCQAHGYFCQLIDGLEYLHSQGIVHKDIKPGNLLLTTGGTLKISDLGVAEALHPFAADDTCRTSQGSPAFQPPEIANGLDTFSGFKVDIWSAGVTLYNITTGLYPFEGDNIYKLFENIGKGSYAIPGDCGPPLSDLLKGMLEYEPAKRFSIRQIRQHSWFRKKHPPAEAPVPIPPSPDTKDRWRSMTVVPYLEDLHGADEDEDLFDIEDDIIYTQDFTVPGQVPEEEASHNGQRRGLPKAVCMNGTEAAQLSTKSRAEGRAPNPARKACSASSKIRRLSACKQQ

MELK(h) (human) = MELK(h) (human) (UniProt Q14680)
Met(D1246N)(h) (human) = Met(D1246N)(h) (human) (UniProt P08581)
Plk3(h) (human) = Plk3(h) (human) (UniProt Q9H4B4)
RIPK2(h) (human) = RIPK2(h) (human) (UniProt O43353)
Chain of RIPK2(h) (human) (O43353 1-299 limits assumed): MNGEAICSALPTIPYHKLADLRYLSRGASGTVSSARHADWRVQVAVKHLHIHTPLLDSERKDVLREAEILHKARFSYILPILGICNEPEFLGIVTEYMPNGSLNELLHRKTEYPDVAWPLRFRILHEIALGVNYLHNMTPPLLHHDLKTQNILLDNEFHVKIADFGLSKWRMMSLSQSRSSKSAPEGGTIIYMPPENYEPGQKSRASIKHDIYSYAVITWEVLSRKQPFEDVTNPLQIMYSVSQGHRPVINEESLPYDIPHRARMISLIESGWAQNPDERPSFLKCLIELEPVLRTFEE

Ret(V804M)(h) (human) = biological target: T3, Ret(V804M)(h) (human) (UniProt P07949)
T3 sequence (looked up): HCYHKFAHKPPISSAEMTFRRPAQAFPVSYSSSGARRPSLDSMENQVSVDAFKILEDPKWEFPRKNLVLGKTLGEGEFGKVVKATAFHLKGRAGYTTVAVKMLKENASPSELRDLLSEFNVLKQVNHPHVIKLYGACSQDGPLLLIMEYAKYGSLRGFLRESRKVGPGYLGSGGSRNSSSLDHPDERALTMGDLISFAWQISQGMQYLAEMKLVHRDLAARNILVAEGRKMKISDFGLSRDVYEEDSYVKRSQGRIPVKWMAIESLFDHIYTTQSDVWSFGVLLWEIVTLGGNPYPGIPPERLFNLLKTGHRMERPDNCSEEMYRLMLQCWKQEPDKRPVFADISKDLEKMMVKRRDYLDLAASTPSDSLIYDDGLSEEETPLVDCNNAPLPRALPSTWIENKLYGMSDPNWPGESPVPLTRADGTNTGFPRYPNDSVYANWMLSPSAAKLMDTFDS

Rsk4(h) (human) = Rsk4(h) (human) (UniProt Q9UK32)
Chain of Rsk4(h) (human) (Q9UK32 whole entry): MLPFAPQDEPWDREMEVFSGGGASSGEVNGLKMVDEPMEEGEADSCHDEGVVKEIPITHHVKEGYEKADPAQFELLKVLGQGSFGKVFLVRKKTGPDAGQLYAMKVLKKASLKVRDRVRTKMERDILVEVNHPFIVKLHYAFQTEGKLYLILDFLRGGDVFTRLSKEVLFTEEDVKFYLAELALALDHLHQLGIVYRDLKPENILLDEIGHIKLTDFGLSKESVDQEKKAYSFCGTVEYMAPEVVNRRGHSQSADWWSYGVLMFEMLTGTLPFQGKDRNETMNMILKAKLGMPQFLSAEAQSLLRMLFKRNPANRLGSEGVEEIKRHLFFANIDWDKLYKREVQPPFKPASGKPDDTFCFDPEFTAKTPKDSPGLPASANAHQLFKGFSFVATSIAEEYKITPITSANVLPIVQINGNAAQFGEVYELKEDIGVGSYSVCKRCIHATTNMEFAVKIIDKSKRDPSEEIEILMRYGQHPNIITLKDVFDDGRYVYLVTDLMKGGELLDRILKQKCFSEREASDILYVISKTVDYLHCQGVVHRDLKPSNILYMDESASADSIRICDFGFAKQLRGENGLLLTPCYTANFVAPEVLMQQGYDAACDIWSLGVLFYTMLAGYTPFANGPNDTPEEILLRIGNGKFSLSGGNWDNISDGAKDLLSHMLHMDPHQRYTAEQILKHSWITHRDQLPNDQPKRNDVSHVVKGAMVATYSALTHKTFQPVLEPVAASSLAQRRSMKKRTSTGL

VRK2(h) (human) = VRK2(h) (human) (UniProt Q86Y07)
Chain of VRK2(h) (human) (Q86Y07 whole entry): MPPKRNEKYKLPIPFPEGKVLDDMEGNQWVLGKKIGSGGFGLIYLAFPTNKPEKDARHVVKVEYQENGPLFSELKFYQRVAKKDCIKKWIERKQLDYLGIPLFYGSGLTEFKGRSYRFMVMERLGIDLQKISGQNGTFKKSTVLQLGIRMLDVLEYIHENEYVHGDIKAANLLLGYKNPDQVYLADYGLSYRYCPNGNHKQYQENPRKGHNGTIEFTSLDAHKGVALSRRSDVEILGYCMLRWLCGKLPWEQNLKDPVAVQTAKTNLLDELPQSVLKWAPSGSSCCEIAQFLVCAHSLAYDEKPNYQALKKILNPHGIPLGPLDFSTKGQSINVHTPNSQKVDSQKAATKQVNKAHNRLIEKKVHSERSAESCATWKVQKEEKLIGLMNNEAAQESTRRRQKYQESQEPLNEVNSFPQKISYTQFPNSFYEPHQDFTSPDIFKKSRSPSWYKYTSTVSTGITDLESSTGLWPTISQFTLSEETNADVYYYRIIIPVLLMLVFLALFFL

WNK2(h) (human) = WNK2(h) (human) (UniProt Q9Y3S1)
p70S6K(h) (human) = p70S6K(h) (human) (UniProt P23443)

Chain of CDK7/cyclinH/MAT1(h) (human) (P50613 whole entry, chain 1 of 3): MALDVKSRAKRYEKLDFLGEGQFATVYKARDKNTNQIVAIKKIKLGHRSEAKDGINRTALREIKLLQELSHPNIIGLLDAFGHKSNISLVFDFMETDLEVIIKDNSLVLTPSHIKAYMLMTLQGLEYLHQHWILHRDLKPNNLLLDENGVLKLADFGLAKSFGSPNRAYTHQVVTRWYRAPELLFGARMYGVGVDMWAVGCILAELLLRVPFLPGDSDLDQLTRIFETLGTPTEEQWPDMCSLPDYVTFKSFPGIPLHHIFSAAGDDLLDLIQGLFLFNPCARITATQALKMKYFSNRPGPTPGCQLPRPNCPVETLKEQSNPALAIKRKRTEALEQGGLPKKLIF
Chain of CDK7/cyclinH/MAT1(h) (human) (P51946 whole entry, chain 2 of 3, further chain): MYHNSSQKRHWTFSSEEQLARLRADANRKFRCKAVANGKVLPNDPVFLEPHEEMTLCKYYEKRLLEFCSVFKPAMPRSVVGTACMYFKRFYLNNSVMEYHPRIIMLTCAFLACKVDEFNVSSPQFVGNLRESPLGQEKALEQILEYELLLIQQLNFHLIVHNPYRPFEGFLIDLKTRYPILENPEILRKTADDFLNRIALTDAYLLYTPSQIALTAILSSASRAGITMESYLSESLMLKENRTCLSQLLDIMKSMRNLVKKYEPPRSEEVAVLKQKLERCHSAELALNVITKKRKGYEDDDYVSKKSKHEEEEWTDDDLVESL
Chain of CDK7/cyclinH/MAT1(h) (human) (P51948 whole entry, chain 3 of 3, further chain): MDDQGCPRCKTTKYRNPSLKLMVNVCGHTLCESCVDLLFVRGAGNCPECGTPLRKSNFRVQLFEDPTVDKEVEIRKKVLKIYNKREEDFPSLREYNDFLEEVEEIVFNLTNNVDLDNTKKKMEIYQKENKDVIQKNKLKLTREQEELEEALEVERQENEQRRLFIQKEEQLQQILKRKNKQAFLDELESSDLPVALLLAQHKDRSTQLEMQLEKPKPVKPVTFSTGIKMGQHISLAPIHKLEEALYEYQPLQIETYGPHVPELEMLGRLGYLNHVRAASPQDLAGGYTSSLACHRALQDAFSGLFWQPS
Chain of FGFR2(h) (human) (P21802 456-770 limits assumed): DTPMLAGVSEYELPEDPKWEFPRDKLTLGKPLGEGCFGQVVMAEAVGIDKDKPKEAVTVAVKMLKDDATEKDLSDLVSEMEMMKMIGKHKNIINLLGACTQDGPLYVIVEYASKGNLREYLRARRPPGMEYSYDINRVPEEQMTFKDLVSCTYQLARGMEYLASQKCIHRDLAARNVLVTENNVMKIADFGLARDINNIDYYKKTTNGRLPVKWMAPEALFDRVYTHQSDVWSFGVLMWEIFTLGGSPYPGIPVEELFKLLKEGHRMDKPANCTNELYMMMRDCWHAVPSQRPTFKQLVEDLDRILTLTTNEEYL
Chain of EphB1(h) (human) (P54762 564-984 limits assumed): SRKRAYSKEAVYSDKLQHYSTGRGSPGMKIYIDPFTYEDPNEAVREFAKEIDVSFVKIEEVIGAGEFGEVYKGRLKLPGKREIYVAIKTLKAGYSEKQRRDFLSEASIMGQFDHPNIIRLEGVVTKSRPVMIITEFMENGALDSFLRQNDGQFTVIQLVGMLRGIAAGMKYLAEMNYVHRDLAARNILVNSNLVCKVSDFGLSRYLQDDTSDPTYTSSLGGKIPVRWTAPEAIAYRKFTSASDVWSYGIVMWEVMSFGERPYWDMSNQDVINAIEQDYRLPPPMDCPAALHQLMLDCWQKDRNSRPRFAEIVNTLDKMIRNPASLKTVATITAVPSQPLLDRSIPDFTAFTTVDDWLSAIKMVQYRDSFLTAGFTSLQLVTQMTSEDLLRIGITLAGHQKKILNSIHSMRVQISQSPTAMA

% activity at 100 µM [1] [%]	% activity at 100 µM (CK2(h) (human)) [%]	% activity at 100 µM (DAPK1(h) (human)) [%]	% activity at 100 µM (EphA7(h) (human)) [%]	% activity at 100 µM (EphB1(h) (human)) [%]	% activity at 100 µM (FGFR2(h) (human)) [%]	% activity at 100 µM (GCK(h) (human)) [%]	% activity at 100 µM (JNK3(h) (human)) [%]	% activity at 100 µM (LKB1(h) (human)) [%]	% activity at 100 µM (MELK(h) (human)) [%]	% activity at 100 µM (Met(D1246N)(h) (human)) [%]	% activity at 100 µM (Plk3(h) (human)) [%]	% activity at 100 µM (RIPK2(h) (human)) [%]	% activity at 100 µM (Ret(V804M)(h) (human)) [%]	% activity at 100 µM (Rsk4(h) (human)) [%]	% activity at 100 µM (VRK2(h) (human)) [%]	% activity at 100 µM (WNK2(h) (human)) [%]	% activity at 100 µM (p70S6K(h) (human)) [%]	Substance
47	101	36	222	58	18	66	70	89	17	31	129	98	87	91	185	54	33	MMI-0400 (peptide)
15	93	0	189	37	12	30	171	51	0	90	122	30	36	29	169	8	3	MMI-0500 (peptide)
65	90	46	159	44	14	70	89	101	16	82	127	97	95	90	161	64	35	MMI-0300 (peptide)

Reference: patent US20150064134A1
